Laboratory results published in the supplement of paper PMC7877785.
± gives the uncertainty stated by the source.

Assay: self-splicing fitness, log relative to wild type (ln ratio); higher = more splicing; Tetrahymena group I intron in knt gene, E. coli kanamycin selection, DiMSum; sequences stand for … in CUCUCU…GGAGGGAAAAGUUAUCAGGCAUGCACCUGGUAGCUAGUCUUUAAACCAAUAGAUUGCAUCGGUUUAAAAGGCAAGACCGUCAAAUUGCGGGAAAGGGGUCAACAGCCGUUCAGUACCAAGUCUCAGGGGAAACUUUGAGAUGGCCUUGCAAAGGGUAUGGUAAUAAGCUGACGGACAUGGUCCUAACCACGCAGCCAAGUCCUAAGUCAACAGAUCUUCUGUUGAUAUGGAUGCAGUUCACAGACUAAAUGUCGGUCGGGGAAGAUGUAUUCUUCUCAUAAGAUAUAGUCGGACCUCUCCUUAAUGGGAGCUAGCGGAUGAAGUGAUGCAACACUGGAGCCGCUGGGAACUAAUUUGUAUGCGAAAGUAUAUUGAUUAGUUUUGGAGUACUCGUGGUCG
Method in brief: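 A randomised library covering all eight P1ex-region intron nucleotides was built with the intron in the knt kanamycin-resistance gene on pET-22b(+) and held in E. coli BL21(DE3). Cells were grown overnight at 37°C or 30°C on LB agar, with or without 25 μg/mL kanamycin, plus 100 μg/mL carbenicillin, 50 μM IPTG and 0.2% rhamnose, and pooled colonies were amplicon-sequenced on an Illumina HiSeq 2500. DiMSum fitness is the error-weighted combination of wild-type-normalised replicate fold changes, kanamycin versus none.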

| Sequence | self-splicing fitness (ln) (30 °C) | self-splicing fitness (ln) (37 °C) |
| --- | --- | --- |
| UUCCAGCAAUAUUACGAUCG | -2.6 ± 0.12 | -1.04 ± 0.14 |
| UUCCAGCAAUAUUACGCAAA | -1.42 ± 0.12 | -0.0764 ± 0.13 |
| UUCCAGCAAUAUUACGCAGU | -3.23 ± 0.17 | -2.79 ± 0.28 |
| UUCCAGCAAUAUUACGCGUG | -1.43 ± 0.069 | -0.516 ± 0.073 |
| UUCCAGCAAUAUUACGCUUC | -4.08 ± 0.24 | -2.58 ± 0.18 |
| UUCCAGCAAUAUUACGCUUG | -2.97 ± 0.21 | -1.94 ± 0.22 |
| UUCCAGCAAUAUUACGGAAG | -2.85 ± 0.19 | -2.16 ± 0.2 |
| UUCCAGCAAUAUUACGGACG | -0.4 ± 0.048 | 0.421 ± 0.077 |
| UUCCAGCAAUAUUACGGGCU | -4.67 ± 0.31 | -2.18 ± 0.17 |
| UUCCAGCAAUAUUACGGUAA | -0.236 ± 0.087 | -0.0663 ± 0.086 |
| UUCCAGCAAUAUUACGGUGC | -1.9 ± 0.16 | -1.23 ± 0.18 |
| UUCCAGCAAUAUUACGGUUC | -2.81 ± 0.16 | -1.99 ± 0.24 |
| UUCCAGCAAUAUUACGUAGA | -0.592 ± 0.076 | -0.502 ± 0.093 |
| UUCCAGCAAUAUUACGUAGU | -1.32 ± 0.093 | -1.57 ± 0.12 |
| UUCCAGCAAUAUUACGUAUU | -3.21 ± 0.18 | -1.7 ± 0.19 |
| UUCCAGCAAUAUUACGUCGA | -0.549 ± 0.099 | 0.355 ± 0.11 |
| UUCCAGCAAUAUUACGUCGU | -4.1 ± 0.19 | -1.85 ± 0.12 |
| UUCCAGCAAUAUUACGUGUA | -0.989 ± 0.058 | -0.572 ± 0.064 |
| UUCCAGCAAUAUUACGUGUG | -0.736 ± 0.04 | -0.164 ± 0.055 |
| UUCCAGCAAUAUUACGUGUU | -4.2 ± 0.25 | -2.48 ± 0.21 |
| UUCCAGCAAUAUUACGUUGA | -1.63 ± 0.078 | -1.17 ± 0.092 |
| UUCGAGCAAUAUUACGAAAG | -2.66 ± 0.36 | – |
| UUCGAGCAAUAUUACGAACA | -2.9 ± 0.28 | -1.73 ± 0.18 |
| UUCGAGCAAUAUUACGAAGU | – | -1.57 ± 0.32 |
| UUCGAGCAAUAUUACGAAUC | – | -2.97 ± 0.4 |
| UUCGAGCAAUAUUACGAGCU | -3.65 ± 0.43 | -2.44 ± 0.45 |

| Sequence | self-splicing fitness (ln) (30 °C) | self-splicing fitness (ln) (37 °C) |
| --- | --- | --- |
| UUCGAGCAAUAUUACGAUUU | -4.18 ± 0.28 | -2.19 ± 0.2 |
| UUCGAGCAAUAUUACGCAUU | – | -2.81 ± 0.43 |
| UUCGAGCAAUAUUACGCCUA | -1.67 ± 0.11 | -1.39 ± 0.097 |
| UUCGAGCAAUAUUACGCGCA | -0.15 ± 0.13 | -0.296 ± 0.17 |
| UUCGAGCAAUAUUACGCUAC | – | -0.0805 ± 0.34 |
| UUCGAGCAAUAUUACGCUGU | -3.54 ± 0.2 | -2.14 ± 0.21 |
| UUCGAGCAAUAUUACGGACU | -4.76 ± 0.38 | -2.63 ± 0.21 |
| UUCGAGCAAUAUUACGGAUU | -3.84 ± 0.23 | -3.1 ± 0.29 |
| UUCGAGCAAUAUUACGGCAA | -0.587 ± 0.099 | -0.26 ± 0.12 |
| UUCGAGCAAUAUUACGGCUG | -2.58 ± 0.23 | -1.81 ± 0.22 |
| UUCGAGCAAUAUUACGGCUU | -3.14 ± 0.18 | -2.65 ± 0.33 |
| UUCGAGCAAUAUUACGGGCU | – | -3.81 ± 0.42 |
| UUCGAGCAAUAUUACGGUAG | -3.12 ± 0.31 | -0.753 ± 0.14 |
| UUCGAGCAAUAUUACGGUUA | -1.19 ± 0.13 | -1.05 ± 0.1 |
| UUCUAGCAAUAUUACGACAA | -0.37 ± 0.12 | -0.0185 ± 0.17 |
| UUCUAGCAAUAUUACGACGA | -0.439 ± 0.12 | 0.731 ± 0.14 |
| UUCUAGCAAUAUUACGACGC | -2.76 ± 0.44 | – |
| UUCUAGCAAUAUUACGAGGG | – | -1.5 ± 0.17 |
| UUCUAGCAAUAUUACGAUUA | -0.696 ± 0.14 | 0.682 ± 0.12 |
| UUCUAGCAAUAUUACGCCUG | -1.79 ± 0.4 | -1.6 ± 0.49 |
| UUCUAGCAAUAUUACGCGAG | -2.97 ± 0.28 | -1.45 ± 0.21 |
| UUCUAGCAAUAUUACGCGGU | -2.74 ± 0.2 | -0.435 ± 0.24 |
| UUCUAGCAAUAUUACGGACU | -1.6 ± 0.17 | -1.16 ± 0.19 |
| UUCUAGCAAUAUUACGGAGC | -2.48 ± 0.44 | – |
| UUCUAGCAAUAUUACGGCAU | -1.81 ± 0.16 | -1.58 ± 0.19 |
